# Positions count from the first letter of the chain named.
# B1: mAb4 (antibody, human IgG1, V domains shown)
# VH: DVQLVESGGDLVKPGGSLKLSCAASGFAFSSYDMSWVRQSPEKRLEWIAHIGSGGGNIYYPDTVKGRFTISRDNAKNTLYLQMRSLKSEDTAMYYCARLIFTTGFYGMDYWGQGTSVTVSS
# VL: DIQMTQTTSSLSASLGDRVTISCRASQDISSYLNWYQQKPDGTIKLLIYYTSRLHSGVPSRFSGSGSGTDYSLTISNLDQDDIATYFCQQGNALPWTFGGGTKLEIK
# B2: mAb1 (antibody, human IgG1, V domains shown)
# VH: DVQLQESGPGLVKPSQSLSLTCTVTGYSITGGFAWNWIRQFPGNTLEWMGYIGYGGSTSYNPSLNSRISITRDTSKNHFFLQFNSVTTDDSATYYCARGDYLFAYWGQGTLVTVSA
# VL: DIVMTQSHKFMSTSVGDRVSITCKASQDVNTAVAWYQQKPGQSPKLLIYSASYRYTGVPDRFTGSGSGTDFTFTISSVQAEDLAVYYCQQHYSTPRTFGGGTKLEIK
# B3: mAb3 (antibody, human IgG1, V domains shown)
# VH: B2 VH with D1E, Q5L, S7T, D89E
# VL: DILMTQSPASLSASVGETVSITCRASGNIHNYLAWYLQRQGKSPQLLVYNAKTLADGVPSRFSGTGSGTQFSLKINSLQPEDFGSYYCQHFWSTPRTFGGGTKLEIK
# B4: mAb2 (antibody, human IgG1, V domains shown)
# VH: B2 VH with D1E, D89E
# VL: B2 VL
# B5: mAb5 (antibody, human IgG1, V domains shown)
# VH: EIQLQQSGPELEKPGASVKISCKASGYSFSDYNMNWVKQSNGKSLEWIGNIDPYYGATSYNQRFKGKATLTVDKSSSTAYMQLKSLTSEDSAVYYCARGDSLFAYWGHGTLVTVSA
# VL: DIVMTQSQEFMSTSLGDRVSVTCKASQNVGTNVAWYQQKPGQSPKALLYSASSRYSGVPDRFTGSGSGTDFTLTISNVQSEDLAEYFCQQYITYPYTFGGGTKLEIK
# B6: mAb6 (antibody, human IgG1, V domains shown)
# VH: B5 VH with H108Q
# VL: B5 VL with S76N, V78M
# Biological target: Siglec-7 and/or Siglec-9 on fresh purified human NK cells
# Experiment: flow cytometry on fresh purified human NK cells, mean of 4 donors
row,Binder,EC50
1,B1,0.61 µg/mL
2,B2,0.05 µg/mL
3,B3,0.19 µg/mL
4,B4,0.07 µg/mL
5,B5,1.27 µg/mL
6,B6,1.3 µg/mL

# Reference: US20200369765A1
